Test system: MS2 coat protein
Test: apparent KD of MS2 coat protein; designed switch direction (-1 OFF switch, 1 ON switch): -1; higher = weaker reporter binding
Summary of the method: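 Transcription of designed RNA switches on Illumina chips was done by stalled E. coli RNA polymerase. SNAP-549-labelled MS2 coat protein was then titrated in doubling steps from 0.7 or 1.5 nM to 3 µM, with steps of 0.8–1.5 h at the lowest and 10–20 min at the highest concentration. The per-design median over clusters of curve-fitted normalised fluorescence is reported as apparent KD.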

[1] = Eterna round: R95, input ligand: FMN 200 uM
[2] = Eterna round: R95, input ligand: microRNA oligo, concentration not stated
[3] = Eterna round: R95, input ligand: none
[4] = input ligand: microRNA oligo, concentration not stated

Sequence | apparent KD of MS2 coat protein [1] [nM] | apparent KD of MS2 coat protein [2] [nM] | apparent KD of MS2 coat protein [3] [nM] | apparent KD of MS2 coat protein (input ligand: FMN 200 uM) [nM] | apparent KD of MS2 coat protein [4] [nM] | apparent KD of MS2 coat protein (input ligand: none) [nM]
UUUAAUUUUUUUUUUUUACAAGCUUUUUGCUCGUCUUAUACAUGAGGAUCACCCAUGUGAAUGGAAGGUAAAUUAUC [JMF 68] (puzzle: Sensor v3, turn-off variant 2) | 17.3 | 18.4 | 20.4 |  |  | 
UUAAAUCAUGUAGGAUAUGCGUGGCGAAGCUAUGCAGAAGGACAUGAGGAUCACCCAUGUUCUAGCGUCUGCGUACAGAUGCGG [JL JSci mod] (Eterna round: R96, puzzle: Exclusion NG 1) |  |  |  | 334 | 22 | 29.8
CUGCUCCGUGUAGGAUAUGCAUAUUCCCAUUAUGCAGAAGGACAUGAGGAUCACCCAUGUAUGUUAUUAUCAUGUGUUGCAUGC [Design 10] (Eterna round: R96, puzzle: Exclusion NG 1) |  |  |  | 146 | 35.2 | 34.3
GAUUUGUAAGGAUAUCGUGCAAGUUUCAAAAGAGGCUUGUGCGAGAAGGUACAUGAGGAUCACCCAUGUAGGUU [Omei Ex4 B13] (Eterna round: R97, puzzle: Exclusion 4) |  |  |  | 42.6 |  | 24.1
GUUGUUUAUGUAGGAUAUGCAAGGCGAACCUAAGCAGAAGGACAUGAGGAUCACCCAUGUAUUGCGGUCUGCGUUCAGAUCGCU [salish99_ExNG1_r4_014] (Eterna round: R96, puzzle: Exclusion NG 1) |  |  |  | 56.8 | 16.3 | 20.1
GUCAGCUCGUCAGGAUAUACAUCACUGCUUCGGCAGUGUAUUAAGAUCACAUGAGGAUCACCCAUGUAGAAGGGACGAGCUGAC [ENG2/2-B1] (Eterna round: R96, puzzle: Exclusion NG 2) |  |  |  | 269 | 21.2 | 21.9
CUGCUCCGUGUAGGAUAUGCGCGCACCACCCGCGCAGAAGGACAUGAGGAUCACCCAUGUAUGUUAUUAUCACGUGAGGCGCGC [Design 37] (Eterna round: R96, puzzle: Exclusion NG 1) |  |  |  | 16.8 | 10.9 | 18
UCUUACUGAGGAUAUACAUAGAUUUACAUGAGGAUCACCCAUGUUCCUCUAUGUAUAAAUGUAGAAGGCAGAAGAA [Mat - Exclusion 5 - JL Mod - D53] (Eterna round: R97, puzzle: Exclusion 5) |  |  |  | 82.6 |  | 17.8
UCGUGAUUAGAGGAUAUAUUAAGGGUCAGAACAAUAGAAGGCUAAACAUGAGGAUCACCCAUGUAAAUGGUUUU [JR_Ex6_Sub058] (Eterna round: R97, puzzle: Exclusion 6) |  |  |  | 183 |  | 70.7
CUGCUCCGUGUAGGAUAUCCCGGCAACCAACCGGGAGAAGGACAUGAGGAUCACCCAUGUAUGUUAUUAUCACGUGAAGCGUCC [Design 28] (Eterna round: R96, puzzle: Exclusion NG 1) |  |  |  | 29 | 12.5 | 19.9
GUCAGCUCGUGAGGAUAUGAACAUGAGGAUCACCCAUGUAAGAUCAAGCUGCUUCGGCAGCAAGUUCAGAAGGUACGAGCUGAC [ENG2/10-C1] (Eterna round: R96, puzzle: Exclusion NG 2) |  |  |  | 150 | 77.5 | 130
AGUAUGCGGCAGGAUAUCCAUCCGCGGUGAGGUGGAGAAGGGCUGACAUGAGGAUCACCCAUGUGCGUCCUGUA [salish99_ex6_r4_027] (Eterna round: R97, puzzle: Exclusion 6) |  |  |  | 29.4 |  | 21
UAUGUCGACAAGGAUAUUUGCGCAAACGACCACAAAGAAGGUGUCACAUGAGGAUCACCCAUGUGGUGUGGGCC [Eternabot (L1) Solution 83] (Eterna round: R97, puzzle: Exclusion 6) |  |  |  | 202 |  | 209
CCGAUGUGAGGAUAUACACUAGGGUGCGUAUACGUGAGCAAACAUGAGGAUCACCCAUGUAGAAGGCACUGAAA [Eternabot (Original) Solution 50] (Eterna round: R97, puzzle: Exclusion 2) |  |  |  | 117 |  | 30.9
AGUUGGCGAGGAUAUACAUGAGGAUCACCCAUGUGAGAGAUACUAGUGAGGUCGAUUGGUAGAAGGCGCUGACG [Mat - Exclusion 3 - Mod of JL D79] (puzzle: Exclusion 3) | 222 | 104 | 151 |  |  | 
AUUAUGUAAGGAUAUCUUACAUGUGACUUCGGUCACUGUUAAGAGAAGGUACAUGAGGAUCACCCAUGUAUAAC [Ex4-3: 48] (puzzle: Exclusion 4) |  | 18.8 |  |  |  | 
UAUGGUUAAGUCAGGAUAUGCUCGUAGAGGUCUAUGCAGAAGGGACAUGAGGAUCACCCAUGUAAAGUCGUGUU [Ex4 #70] (Eterna round: R97, puzzle: Brourd's mod of Exclusion 4) |  |  |  | 51.5 |  | 25.1
GAUUCGCGAGGAUAUACAGUCGAGUCCAUUACGUGUCUCGGACUUGAGGAUCACCCAAGUAGAAGGCGUCUCAU [salish99_ex2_r4_637] (Eterna round: R97, puzzle: Exclusion 2) |  |  |  | 55.8 |  | 57.8
AAAGGGUCAGGAUAUCCUGUGAAGAAGAAGUUGUUGUCGCGGGAGAAGGGACAUGAGGAUCACCCAUGUAGAGC [A Simple Submission] (Eterna round: R97, puzzle: Exclusion 4) |  |  |  | 52.9 |  | 53.6
GUGGGUUACAUGAGGAUCACCCAUGUAUAGUGGGAAAAGAUAUAGGAUAUAAUAUAAAAAUUAUAUUAGAAGGAUAGAGACUAG [AK ExNG3-1.1] (Eterna round: R96, puzzle: Exclusion NG 3) |  |  |  | 727 | 260 | 896
CCCAGUUAUUGAGGAUAUUGUACAUGAGGAUCACCCAUGUAAUAAAUGAGGAUUUCGGGUGUCUACAAGAAGGCAAGGAUAGGC [Ostracism 20 - Jieux - Exclusion NG 2] (Eterna round: R96, puzzle: Exclusion NG 2) |  |  |  | 54.6 | 46.1 | 46.8
CUUUUGUGAGGAUAUUAGUAGUAAAUAAAUAAAAUUACUAUUGAGAAGGCACAUGAGGAUCACCCAUGUUCCUC [salish99_ex4_r3_064] (puzzle: Exclusion 4) |  | 30.3 |  |  |  | 
AGUUGUUGUUUCCGUUCUUACAUGAGGAUCACCCAUGUUUCUUGUCGUGCUCGCGUUGCUCGUCUGGCUGCCUGUUG [salish99_TOv1_r3_069] (puzzle: Sensor v3, turn-off variant 1) | 40.7 | 35.2 | 53.3 |  |  | 
CCUAGUUGGUAAGGAUAUCCUACAUUAUUCUGACCCGUGCAAGCUACAUGAGGAUCACCCAUGUGGGAGAAGGUGCGUUAACGU [Design 8] (Eterna round: R96, puzzle: Exclusion NG 2) |  |  |  | 55.7 | 35.2 | 55.1
AGACAGUCAGGAUAUACAUGAGGAUCACCCAUGUUGAGAUGAGAAAGGGCAGGAAGAGGUAGAAGGGACGAGAG [JR_Exclu3_Sub036] (puzzle: Exclusion 3) | 31 | 24.7 | 30.4 |  |  | 

Source: the supplement of paper PMC9170038
